From US20260274910A1, “SINGLE FUSION PROTEIN AND PHARMACEUTICAL COMPOSITION” (MEDI&GENE INC., priority 2023, published 2026)

Target: ATP5B protein
Assay: SPR, ATP5B amine-coupled to CM5 chip, peptide in flow at 50 ul/min; binding units relative to SEQ ID NO: 12

Sequence of ATP5B protein (P06576 48-529): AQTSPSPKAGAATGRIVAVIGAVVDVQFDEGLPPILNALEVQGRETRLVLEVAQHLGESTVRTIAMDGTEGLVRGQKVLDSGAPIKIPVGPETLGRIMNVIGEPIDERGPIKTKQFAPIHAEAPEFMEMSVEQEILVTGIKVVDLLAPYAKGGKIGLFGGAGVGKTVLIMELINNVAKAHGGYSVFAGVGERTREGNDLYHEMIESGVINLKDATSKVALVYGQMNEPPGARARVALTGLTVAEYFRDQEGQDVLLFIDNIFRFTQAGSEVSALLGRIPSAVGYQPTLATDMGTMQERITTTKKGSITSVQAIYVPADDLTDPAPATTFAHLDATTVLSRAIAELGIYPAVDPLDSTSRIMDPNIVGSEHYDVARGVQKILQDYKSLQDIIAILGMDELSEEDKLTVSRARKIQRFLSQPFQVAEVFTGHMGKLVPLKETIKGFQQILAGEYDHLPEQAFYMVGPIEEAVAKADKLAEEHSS

| Binding (%) | Binder |
| --- | --- |
| 96.7% | VDRGAGSIREAGGAFGKREQAAEERYFR [Shortened substance (8-35) amino acid Ala substituted (29)] |
| 91.6% | VARGAGSIREAGGAFGKREQAEEERYFR [Shortened substance (8-35) amino acid Ala substituted (9)] |
| 158% | VDRGAGSIREAGGAFGKREQAEEARYFR [Shortened substance (8-35) amino acid Ala substituted (31)] |
| 102% | VDRGAGSIREAGGAFAKREQAEEERYFR [Shortened substance (8-35) amino acid Ala substituted (23)] |
| 146% | VDRGAGSIREAGGAFGKREQAEEERAFR [Shortened substance (8-35) amino acid Ala substituted (33)] |
| 100% | VDRAAGSIREAGGAFGKREQAEEERYFR [Shortened substance (8-35) amino acid Ala substituted (11)] |
| 98.5% | VDRGAASIREAGGAFGKREQAEEERYFR [Shortened substance (8-35) amino acid Ala substituted (13)] |
| 94% | VDRGAGSIREAGGAAGKREQAEEERYFR [Shortened substance (8-35) amino acid Ala substituted (22)] |
| 98.8% | VDRGAGAIREAGGAFGKREQAEEERYFR [Shortened substance (8-35) amino acid Ala substituted (14)] |
| 100% | VDRGAGSIREAGGAFGKREQAEEERYFR [Shortened substance (8-35)] |
| 94.1% | VDRGAGSIREAGGAFGKRAQAEEERYFR [Shortened substance (8-35) amino acid Ala substituted (26)] |
| 169% | VDRGAGSIRAAGGAFGKREQAEEERYFR [Shortened substance (8-35) amino acid Ala substituted (17)] |
| 68% | VDRGAGSIREAGAAFGKREQAEEERYFR [Shortened substance (8-35) amino acid Ala substituted (20)] |
| 97% | VDRGAGSIAEAGGAFGKREQAEEERYFR [Shortened substance (8-35) amino acid Ala substituted (16)] |
| 104% | VDAGAGSIREAGGAFGKREQAEEERYFR [Shortened substance (8-35) amino acid Ala substituted (10)] |
| 101% | ADRGAGSIREAGGAFGKREQAEEERYFR [Shortened substance (8-35) amino acid Ala substituted (8)] |
| 89.6% | VDRGAGSIREAAGAFGKREQAEEERYFR [Shortened substance (8-35) amino acid Ala substituted (19)] |
| 426% | VDRGAGSIREAGGAFGKREQAEEEAYFR [Shortened substance (8-35) amino acid Ala substituted (32)] |
| 100% | VDRGAGSIREAGGAFGAREQAEEERYFR [Shortened substance (8-35) amino acid Ala substituted (24)] |
| 99.3% | VDRGAGSAREAGGAFGKREQAEEERYFR [Shortened substance (8-35) amino acid Ala substituted (15)] |
| 85.2% | VDRGAGSIREAGGAFGKAEQAEEERYFR [Shortened substance (8-35) amino acid Ala substituted (25)] |
| 89.5% | VDRGAGSIREAGGAFGKREAAEEERYFR [Shortened substance (8-35) amino acid Ala substituted (27)] |
| 92.1% | VDRGAGSIREAGGAFGKREQAEEERYAR [Shortened substance (8-35) amino acid Ala substituted (34)] |
| 94% | VDRGAGSIREAGGAFGKREQAEAERYFR [Shortened substance (8-35) amino acid Ala substituted (30)] |
| 110% | VDRGAGSIREAGGAFGKREQAEEERYFA [Shortened substance (8-35) amino acid Ala substituted (35)] |
